The values that follow come from the Human Domainome abundance scans (Beltran et al. 2025).

B1: Homeobox protein cut-like 1, residues 941 to 1008; numbered along this chain, P39880 (parent)
chain: QEVDTIELTRQVKEKLAKNGICQRIFGEKVLGLSQGSVSDMLSRPKPWSKLTQKGREPFIRMQLWLNG

± gives the uncertainty stated by the source.

In the data set the parent is B1. Put plainly: abundance fitness (aPCA) (normalised: wild type 0, dead -1); higher = more abundant; growth selection in yeast, the domain comes from the species named. As to conditions: Homo sapiens.
QEVDTIELTRQVKEKLAKNGICQRIFGGKVLGLSQGSVSDMLSRPKPWSKLTQKGREPFIRMQLWLNG [E28G]: the abundance fitness was -0.072 ± 0.059.

With QEVDTIELTRQVKEKLAKNGICQRIFGKKVLGLSQGSVSDMLSRPKPWSKLTQKGREPFIRMQLWLNG [E28K], the abundance fitness is -0.106 ± 0.076.

For QEVDTIELTRQVKEKLAKNGICQRIFGEKVLLLSQGSVSDMLSRPKPWSKLTQKGREPFIRMQLWLNG [G32L], the abundance fitness was -0.273 ± 0.054.

As to QEVDTIELTRQVKEKLAKNGICQRIFGEKVLRLSQGSVSDMLSRPKPWSKLTQKGREPFIRMQLWLNG [G32R], the abundance fitness is -0.029 ± 0.062.

As for QEVDTIELTRQVKEKLAKNGICQRIFGEKVLKLSQGSVSDMLSRPKPWSKLTQKGREPFIRMQLWLNG [G32K], the abundance fitness was -0.1 ± 0.079.

Turning to QEVDTIELTRQVKEKLAKNGICQRIFGEKVLMLSQGSVSDMLSRPKPWSKLTQKGREPFIRMQLWLNG [G32M], the abundance fitness is -0.226 ± 0.088.

For the variant QEVDTIELTRQVKEKLAKNGICQRIFGEKVLPLSQGSVSDMLSRPKPWSKLTQKGREPFIRMQLWLNG [G32P], the abundance fitness was -0.21 ± 0.083.

As for QEVDTIELTRQVKEKLAKNGICQRIFGEKVLQLSQGSVSDMLSRPKPWSKLTQKGREPFIRMQLWLNG [G32Q], the abundance fitness was -0.138 ± 0.097.

Take QEVDTIELTRQVKEKLAKNGICQRIFGEKVLNLSQGSVSDMLSRPKPWSKLTQKGREPFIRMQLWLNG [G32N]: the abundance fitness is -0.204 ± 0.087.

On to QEVDTIELTRQVKEKLAKNGICQRIFGEKVLHLSQGSVSDMLSRPKPWSKLTQKGREPFIRMQLWLNG [G32H], for which the abundance fitness was -0.096 ± 0.096.

Take QEVDTIELTRQVKEKLAKNGICQRIFGEKVLDLSQGSVSDMLSRPKPWSKLTQKGREPFIRMQLWLNG [G32D]: the abundance fitness was -0.311 ± 0.076.

In the case of QEVDTIELTRQVKEKLAKNGICQRIFGEKVLCLSQGSVSDMLSRPKPWSKLTQKGREPFIRMQLWLNG [G32C], the abundance fitness is -0.266 ± 0.076.

In the case of QEVDTIELTRQVKEKLAKNGICQRIFGEKVLFLSQGSVSDMLSRPKPWSKLTQKGREPFIRMQLWLNG [G32F], the abundance fitness is -0.313 ± 0.079.

For the variant QEVDTIELTRQVKEKLAKNGICQRIFGEKVLALSQGSVSDMLSRPKPWSKLTQKGREPFIRMQLWLNG [G32A], the abundance fitness was -0.096 ± 0.067.

With QEVDTIELTRQVKEKLAKNGICQRIFGEKVLELSQGSVSDMLSRPKPWSKLTQKGREPFIRMQLWLNG [G32E], the abundance fitness was -0.411 ± 0.11.

As for QEVDTIELTRQVKEKLAKNGICQRIFGEKVLILSQGSVSDMLSRPKPWSKLTQKGREPFIRMQLWLNG [G32I], the abundance fitness was -0.584 ± 0.096.

Turning to QEVDTIELTRQVKEKLAKNGICQRIFTEKVLGLSQGSVSDMLSRPKPWSKLTQKGREPFIRMQLWLNG [G27T], the abundance fitness was -0.201 ± 0.067.

Turning to QEVDTIELTRQVKEKLAKNGICQRIFYEKVLGLSQGSVSDMLSRPKPWSKLTQKGREPFIRMQLWLNG [G27Y], the abundance fitness was -0.144 ± 0.11.

Consider QEVDTIELTRQVKEKLAKNGICQRIFSEKVLGLSQGSVSDMLSRPKPWSKLTQKGREPFIRMQLWLNG [G27S], for which the abundance fitness was -0.008 ± 0.053.

Turning to QEVDTIELTRQVKEKLAKNGICQRIFVEKVLGLSQGSVSDMLSRPKPWSKLTQKGREPFIRMQLWLNG [G27V], the abundance fitness is -0.231 ± 0.047.

In the case of QEVDTIELTRQVKEKLAKNGICQRIFWEKVLGLSQGSVSDMLSRPKPWSKLTQKGREPFIRMQLWLNG [G27W], the abundance fitness was -0.569 ± 0.099.

As to QEVDTIELTRQVKEKLAKNGICQRIFQEKVLGLSQGSVSDMLSRPKPWSKLTQKGREPFIRMQLWLNG [G27Q], the abundance fitness was -0.314 ± 0.087.

On to QEVDTIELTRQVKEKLAKNGICQRIFREKVLGLSQGSVSDMLSRPKPWSKLTQKGREPFIRMQLWLNG [G27R], for which the abundance fitness is -0.177 ± 0.054.

Take QEVDTIELTRQVKEKLAKNGICQRIFGEKVRGLSQGSVSDMLSRPKPWSKLTQKGREPFIRMQLWLNG [L31R]: the abundance fitness was -0.15 ± 0.052.

As to QEVDTIELTRQVKEKLAKNGICQRIFGEKVGGLSQGSVSDMLSRPKPWSKLTQKGREPFIRMQLWLNG [L31G], the abundance fitness was -0.256 ± 0.057.

Turning to QEVDTIELTRQVKEKLAKNGICQRIFGEKVTGLSQGSVSDMLSRPKPWSKLTQKGREPFIRMQLWLNG [L31T], the abundance fitness was -0.393 ± 0.063.

Consider QEVDTIELTRQVKEKLAKNGICQRIFGEKVWGLSQGSVSDMLSRPKPWSKLTQKGREPFIRMQLWLNG [L31W], for which the abundance fitness is -0.138 ± 0.063.

Consider QEVDTIELTRQVKEKLAKNGICQRIFGEKVEGLSQGSVSDMLSRPKPWSKLTQKGREPFIRMQLWLNG [L31E], for which the abundance fitness was -0.486 ± 0.067.

As for QEVDTIELTRQVKEKLAKNGICQRIFGEKVPGLSQGSVSDMLSRPKPWSKLTQKGREPFIRMQLWLNG [L31P], the abundance fitness is -0.233 ± 0.073.

For QEVDTIELTRQVKEKLAKNGICQRIFGEKVDGLSQGSVSDMLSRPKPWSKLTQKGREPFIRMQLWLNG [L31D], the abundance fitness was -0.425 ± 0.086.

As for QEVDTIELTRQVKEKLAKNGICQRIFGEKVYGLSQGSVSDMLSRPKPWSKLTQKGREPFIRMQLWLNG [L31Y], the abundance fitness is -0.351 ± 0.1.

As to QEVDTIELTRQVKEKLAKNGICQRIFGEKVMGLSQGSVSDMLSRPKPWSKLTQKGREPFIRMQLWLNG [L31M], the abundance fitness was -0.191 ± 0.068.

Regarding QEVDTIELTRQVKEKLAKNGICQRIFGEKVHGLSQGSVSDMLSRPKPWSKLTQKGREPFIRMQLWLNG [L31H], the abundance fitness is -0.313 ± 0.1.

For QEVDTIELTRQVKEKLAKNGICQRIFGEKVNGLSQGSVSDMLSRPKPWSKLTQKGREPFIRMQLWLNG [L31N], the abundance fitness is -0.319 ± 0.098.

As to QEVDTIELTRQVKEKLAKNGICQRIFGEKVIGLSQGSVSDMLSRPKPWSKLTQKGREPFIRMQLWLNG [L31I], the abundance fitness was -0.278 ± 0.078.

Regarding QEVDTIELTRQVKEKLAKNGICQRIFGEKVCGLSQGSVSDMLSRPKPWSKLTQKGREPFIRMQLWLNG [L31C], the abundance fitness is -0.255 ± 0.098.

QEVDTIELTRQVKEKLAKNGICQRIFGEKVKGLSQGSVSDMLSRPKPWSKLTQKGREPFIRMQLWLNG [L31K]: the abundance fitness was -0.233 ± 0.065.

In the case of QEVDTIELTRQVKEKLAKNGICQRIFGEKVVGLSQGSVSDMLSRPKPWSKLTQKGREPFIRMQLWLNG [L31V], the abundance fitness is -0.242 ± 0.049.

With QEVDTIELTRQVKEKLAKNGICQRIFGEKVFGLSQGSVSDMLSRPKPWSKLTQKGREPFIRMQLWLNG [L31F], the abundance fitness is -0.11 ± 0.091.

On to QEVDTIELTRQVKEKLAKNGICQRIFGEKVAGLSQGSVSDMLSRPKPWSKLTQKGREPFIRMQLWLNG [L31A], for which the abundance fitness is -0.273 ± 0.051.
